According to the supplement of paper PMC7877785:
± gives the uncertainty stated by the source.

Assay: self-splicing fitness, log relative to wild type (ln ratio); higher = more splicing; Tetrahymena group I intron in knt gene, E. coli kanamycin selection, DiMSum; sequences stand for … in CUCUCU…GGAGGGAAAAGUUAUCAGGCAUGCACCUGGUAGCUAGUCUUUAAACCAAUAGAUUGCAUCGGUUUAAAAGGCAAGACCGUCAAAUUGCGGGAAAGGGGUCAACAGCCGUUCAGUACCAAGUCUCAGGGGAAACUUUGAGAUGGCCUUGCAAAGGGUAUGGUAAUAAGCUGACGGACAUGGUCCUAACCACGCAGCCAAGUCCUAAGUCAACAGAUCUUCUGUUGAUAUGGAUGCAGUUCACAGACUAAAUGUCGGUCGGGGAAGAUGUAUUCUUCUCAUAAGAUAUAGUCGGACCUCUCCUUAAUGGGAGCUAGCGGAUGAAGUGAUGCAACACUGGAGCCGCUGGGAACUAAUUUGUAUGCGAAAGUAUAUUGAUUAGUUUUGGAGUACUCGUGGUCG
Outline: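 Fitness was computed with DiMSum as the error-weighted combination of replicate fold changes, kanamycin versus none, each normalised to wild type. The library randomised all eight intron nucleotides of the P1ex region, with the intron placed in the knt kanamycin-resistance gene on pET-22b(+) in E. coli BL21(DE3). Six replicate transformations were grown overnight at 37°C or 30°C on LB agar with or without 25 μg/mL kanamycin, plus 100 μg/mL carbenicillin, 50 μM IPTG and 0.2% rhamnose. Pooled colonies were amplicon-sequenced on an Illumina HiSeq 2500.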

| Sequence | self-splicing fitness (ln) (30 °C) | self-splicing fitness (ln) (37 °C) |
| --- | --- | --- |
| UAAGAGCAAUAUUACGGCUU | -2.3 ± 0.2 | -1.44 ± 0.22 |
| AACCAGCAAUAUUACGGACU | -0.113 ± 0.061 | 0.226 ± 0.082 |
| AAGAAGCAAUAUUACGACUG | -0.231 ± 0.089 | 0.323 ± 0.16 |
| GUACAGCAAUAUUACGAAAU | -2.34 ± 0.12 | -0.906 ± 0.11 |
| CGAUAGCAAUAUUACGGUCC | -1.2 ± 0.21 | -0.541 ± 0.23 |
| UAAAAGCAAUAUUACGUGAC | – | -3.43 ± 0.46 |
| GAAGAGCAAUAUUACGCUUA | -3.49 ± 0.33 | -1.3 ± 0.23 |
| CACCAGCAAUAUUACGAAUA | -3.93 ± 0.21 | -2.62 ± 0.16 |
| CCUGAGCAAUAUUACGGUCA | -2.92 ± 0.24 | -2.46 ± 0.33 |
| GGUCAGCAAUAUUACGGUCA | -0.669 ± 0.13 | 0.518 ± 0.13 |
| CACAAGCAAUAUUACGGUCG | 0.139 ± 0.054 | 0.219 ± 0.064 |
| UUGGAGCAAUAUUACGGGAU | – | -2.77 ± 0.4 |
| AAGGAGCAAUAUUACGGCCA | -1.83 ± 0.19 | -1.66 ± 0.27 |
| AAUAAGCAAUAUUACGAUCC | -0.993 ± 0.21 | -0.374 ± 0.24 |
| GGAGAGCAAUAUUACGAUAA | – | -0.957 ± 0.43 |
| GAUCAGCAAUAUUACGUCGG | -4.18 ± 0.3 | -2.39 ± 0.2 |
| AAAGAGCAAUAUUACGUUCU | -2.77 ± 0.13 | -1.72 ± 0.13 |
| AUCGAGCAAUAUUACGCGAG | -2.32 ± 0.2 | -1.4 ± 0.14 |
| AACCAGCAAUAUUACGUACG | -1.42 ± 0.063 | -0.431 ± 0.067 |
| CGUGAGCAAUAUUACGUUUC | -3.19 ± 0.23 | -2.23 ± 0.19 |
| UAGUAGCAAUAUUACGCUAG | -1.09 ± 0.23 | 0.812 ± 0.24 |
| AAUUAGCAAUAUUACGUGAC | -2.05 ± 0.21 | -2.73 ± 0.23 |
| ACGGAGCAAUAUUACGUUUG | -2.3 ± 0.12 | -2.31 ± 0.19 |
| AGGAAGCAAUAUUACGUAAC | -3.65 ± 0.3 | -2.18 ± 0.42 |
| CAUAAGCAAUAUUACGUUGU | -3.55 ± 0.15 | -2.98 ± 0.18 |
| CACCAGCAAUAUUACGUUAG | -0.512 ± 0.048 | 0.279 ± 0.064 |
| GGAGAGCAAUAUUACGCAUC | -3.08 ± 0.28 | -2.85 ± 0.43 |

| Sequence | self-splicing fitness (ln) (30 °C) | self-splicing fitness (ln) (37 °C) |
| --- | --- | --- |
| UCCGAGCAAUAUUACGUGUU | -2.75 ± 0.16 | -2.36 ± 0.15 |
| CGUUAGCAAUAUUACGAUAC | – | -2.64 ± 0.44 |
| GCGUAGCAAUAUUACGAGGA | -1.09 ± 0.42 | – |
| GUGAAGCAAUAUUACGUGCU | -1.99 ± 0.091 | -0.974 ± 0.1 |
| GAGCAGCAAUAUUACGCCUG | -2.2 ± 0.19 | -2.32 ± 0.42 |
| CAAAAGCAAUAUUACGCCGA | -2.91 ± 0.23 | -2.49 ± 0.25 |
| UAUAAGCAAUAUUACGUAAU | -3.56 ± 0.37 | -0.822 ± 0.19 |
| CGGAAGCAAUAUUACGUAAC | – | -2.71 ± 0.27 |
| GGCAAGCAAUAUUACGCAGC | – | -2.27 ± 0.28 |
| GCUCAGCAAUAUUACGAUAG | -1.95 ± 0.11 | -1.26 ± 0.096 |
| GUGGAGCAAUAUUACGGACC | -1.56 ± 0.38 | – |
| CUACAGCAAUAUUACGCAAG | -2.61 ± 0.15 | -1.45 ± 0.19 |
| GAAUAGCAAUAUUACGAGCA | -1.94 ± 0.23 | -0.431 ± 0.14 |
| UAUUAGCAAUAUUACGAUUA | 0.102 ± 0.13 | -0.402 ± 0.12 |
| GAUUAGCAAUAUUACGAGAA | – | -1.51 ± 0.3 |
| UCUAAGCAAUAUUACGUCGG | 0.0423 ± 0.067 | 0.627 ± 0.078 |
| AUUUAGCAAUAUUACGCUGG | -1.97 ± 0.27 | -1.4 ± 0.33 |
| CGUGAGCAAUAUUACGUUCU | -2.74 ± 0.28 | -2.2 ± 0.27 |
| CCUCAGCAAUAUUACGUCUG | -3.75 ± 0.23 | -1.79 ± 0.19 |
| AAACAGCAAUAUUACGCUAU | -1.87 ± 0.1 | -2.23 ± 0.16 |
| GUAAAGCAAUAUUACGGGGA | -2.91 ± 0.19 | -2.4 ± 0.21 |
| UGUAAGCAAUAUUACGGUUG | -1.14 ± 0.096 | -0.58 ± 0.1 |
| UGCGAGCAAUAUUACGAUCA | 0.0986 ± 0.13 | 0.104 ± 0.14 |
| GCUAAGCAAUAUUACGAGAC | -2.13 ± 0.13 | -0.763 ± 0.14 |
| UCUGAGCAAUAUUACGCGGG | -3.91 ± 0.26 | -2.29 ± 0.2 |
| GUUUAGCAAUAUUACGUACA | -0.582 ± 0.2 | -0.508 ± 0.22 |
| GAAGAGCAAUAUUACGCGGG | -3.24 ± 0.28 | -2.65 ± 0.41 |

| Sequence | self-splicing fitness (ln) (30 °C) | self-splicing fitness (ln) (37 °C) |
| --- | --- | --- |
| CGCCAGCAAUAUUACGUAGG | -2.47 ± 0.085 | -1.32 ± 0.1 |
| UUUUAGCAAUAUUACGAUAG | -0.792 ± 0.26 | -0.639 ± 0.46 |
| UGUUAGCAAUAUUACGGUCG | -0.217 ± 0.15 | 0.99 ± 0.18 |
| GAGUAGCAAUAUUACGGGUC | -2.57 ± 0.2 | -1.81 ± 0.18 |
| CCAUAGCAAUAUUACGCCUU | -3.13 ± 0.22 | -3.02 ± 0.22 |
| GAUUAGCAAUAUUACGCCCG | 0.359 ± 0.24 | – |
| GUUGAGCAAUAUUACGGGAG | – | -2.9 ± 0.38 |
| GUAUAGCAAUAUUACGGGAG | – | -1.77 ± 0.35 |
| ACCAAGCAAUAUUACGCUUU | -2.41 ± 0.093 | -1.45 ± 0.1 |
| GGGAAGCAAUAUUACGGGUG | -2.68 ± 0.13 | -2.12 ± 0.18 |
| GCCCAGCAAUAUUACGCCGA | -1.86 ± 0.13 | -1.2 ± 0.12 |
| GAGCAGCAAUAUUACGUGAC | -2.38 ± 0.15 | -1.64 ± 0.15 |
| CCGCAGCAAUAUUACGCCGC | -4.21 ± 0.29 | -2.93 ± 0.48 |
| UGGUAGCAAUAUUACGUACU | 0.209 ± 0.34 | – |
| CAGCAGCAAUAUUACGCUUA | -1.51 ± 0.13 | -0.645 ± 0.12 |
| GGUCAGCAAUAUUACGGACU | -1.49 ± 0.44 | – |
| ACCCAGCAAUAUUACGCGGG | -3.6 ± 0.13 | -3.08 ± 0.16 |
| GUCUAGCAAUAUUACGGUGU | -0.578 ± 0.046 | -0.0594 ± 0.06 |
| UCACAGCAAUAUUACGCUCC | -2.21 ± 0.27 | -1.51 ± 0.37 |
| GCCCAGCAAUAUUACGUUUU | -1.53 ± 0.064 | -0.591 ± 0.09 |
| GCGGAGCAAUAUUACGGUUG | -3.64 ± 0.2 | -1.78 ± 0.18 |
| GUACAGCAAUAUUACGCGUU | -2.61 ± 0.15 | -1.35 ± 0.14 |
| GUACAGCAAUAUUACGGUGU | -3.2 ± 0.14 | -1.51 ± 0.13 |
| UACAAGCAAUAUUACGGAGA | -2.4 ± 0.17 | -3.27 ± 0.23 |
| AUCAAGCAAUAUUACGUGCA | -0.986 ± 0.077 | -0.556 ± 0.088 |
| UGUCAGCAAUAUUACGGGAU | -3.26 ± 0.15 | -3.32 ± 0.19 |
